# Source: PMC5855017, “Label-Free Aptasensor for Lysozyme Detection Using Electrochemical Impedance Spectroscopy”
# B1: AptLys (lysozyme aptamer) (ssDNA)
# DNA: ATCTACGAATTCATCAGGGCTAAAGAGTGCAGAGTTACTTAG
# modifications: 5' aminolink C6, immobilized via amide bond on graphite-epoxy electrode
# Target: Lysozyme (UniProt P00698 19-147)
# Experiment: electrochemical impedance spectroscopy (label-free aptasensor); PEG-blocked electrode; 0.25-5 uM lysozyme; LOD 1.67 uM, slope 0.090 uM-1 (not Kd); Room temperature incubation; buffers listed: PBS (187 mM NaCl, 2.7 mM KCl, 8.1 mM Na2HPO4, 1.76 mM KH2PO4, pH 7.0) and BB (1 mM MgCl2, 2.7 mM KCl, 140 mM NaCl)
# Conditions: protein: commercial
# Sequence of Lysozyme (P00698 19-147): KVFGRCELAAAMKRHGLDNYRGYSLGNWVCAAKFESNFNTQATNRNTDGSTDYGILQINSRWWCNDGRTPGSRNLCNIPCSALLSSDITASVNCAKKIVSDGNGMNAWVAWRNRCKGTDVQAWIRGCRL
binder,measurement,value
B1,binding result,binds
